Test results as given in patent publication US20020055130.

Assays:
[1] = tested on: purified recombinant catalytically inactive MEK-1
[2] = biological target: T1, purified recombinant MEKK1 NH2-terminal fusion protein (50 kD) (UniProt P53349)
T1 sequence: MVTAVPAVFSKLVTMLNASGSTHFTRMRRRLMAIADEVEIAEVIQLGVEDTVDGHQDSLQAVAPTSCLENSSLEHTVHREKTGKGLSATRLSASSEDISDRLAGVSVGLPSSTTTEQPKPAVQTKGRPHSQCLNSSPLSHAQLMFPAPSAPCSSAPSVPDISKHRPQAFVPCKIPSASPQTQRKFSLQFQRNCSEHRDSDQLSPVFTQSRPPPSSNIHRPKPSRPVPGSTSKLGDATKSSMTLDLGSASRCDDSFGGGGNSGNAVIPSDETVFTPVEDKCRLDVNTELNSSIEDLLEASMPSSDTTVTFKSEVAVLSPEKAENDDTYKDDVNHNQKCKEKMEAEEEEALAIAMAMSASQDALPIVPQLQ

98 kD MEKK protein (98 kD MEKK1) of PC12, Rat1a, NIH3T3 and Swiss3T3 cells
phosphorylation of kinase inactive MEK-1 by Mono Q fractions (in vitro kinase assay) [1]: Fractions 10-14 of lysate from PC 12 cells treated with EGF phosphorylated MEK-1 | phosphorylation of the MEKK1 NH2-terminal fusion protein by immunoprecipitates (in vitro kinase assay) [2]: MEKK1 immunoprecipitated from lysates of EGF-stimulated and unstimulated PC12 cells robustly phosphorylated the inert 50 kD MEKK1 NH2-fusion protein
